To fix the notation:
B1: POU domain, class 2, transcription factor 2, residues 200 to 269; numbered along this chain, P09086 (parent)
chain: LEELEQFARTFKQRRIKLGFTQGDVGLAMGKLYGNDFSQTTISRFEALNLSFKNMCKLKPLLEKWLNDAE

± gives the uncertainty stated by the source.

Variants of B1 are the subject of the data set. Briefly: abundance fitness (aPCA) (normalised: wild type 0, dead -1); higher = more abundant; growth selection in yeast, the domain comes from the species named. The note with it: Homo sapiens.
Turning to LEELEQFARTFKTRRIKLGFTQGDVGLAMGKLYGNDFSQTTISRFEALNLSFKNMCKLKPLLEKWLNDAE [Q13T], the abundance fitness came out at 0.001 ± 0.033.

Regarding LEELEQFARTFKHRRIKLGFTQGDVGLAMGKLYGNDFSQTTISRFEALNLSFKNMCKLKPLLEKWLNDAE [Q13H], the abundance fitness was -0.085 ± 0.077.

Turning to LEELEQFARTFKERRIKLGFTQGDVGLAMGKLYGNDFSQTTISRFEALNLSFKNMCKLKPLLEKWLNDAE [Q13E], the abundance fitness turned out to be 0.06 ± 0.048.

In the case of LEELEQFARTFKVRRIKLGFTQGDVGLAMGKLYGNDFSQTTISRFEALNLSFKNMCKLKPLLEKWLNDAE [Q13V], the abundance fitness was -0.023 ± 0.036.

Turning to LEELEQFARTFKLRRIKLGFTQGDVGLAMGKLYGNDFSQTTISRFEALNLSFKNMCKLKPLLEKWLNDAE [Q13L], the abundance fitness was -0.033 ± 0.031.

In the case of LEELEQFARTFKDRRIKLGFTQGDVGLAMGKLYGNDFSQTTISRFEALNLSFKNMCKLKPLLEKWLNDAE [Q13D], the abundance fitness is -0.04 ± 0.1.

Consider LEELEQFARTFKNRRIKLGFTQGDVGLAMGKLYGNDFSQTTISRFEALNLSFKNMCKLKPLLEKWLNDAE [Q13N], for which the abundance fitness was -0.07 ± 0.065.

On to LEELEQFARTFKRRRIKLGFTQGDVGLAMGKLYGNDFSQTTISRFEALNLSFKNMCKLKPLLEKWLNDAE [Q13R], for which the abundance fitness was -0.054 ± 0.029.

As for LEELEQFARTFKYRRIKLGFTQGDVGLAMGKLYGNDFSQTTISRFEALNLSFKNMCKLKPLLEKWLNDAE [Q13Y], the abundance fitness was -0.169 ± 0.11.

Consider LEELEQFARTFKMRRIKLGFTQGDVGLAMGKLYGNDFSQTTISRFEALNLSFKNMCKLKPLLEKWLNDAE [Q13M], for which the abundance fitness was -0.023 ± 0.04.

For the variant LEELEQFARTFKCRRIKLGFTQGDVGLAMGKLYGNDFSQTTISRFEALNLSFKNMCKLKPLLEKWLNDAE [Q13C], the abundance fitness was -0.115 ± 0.062.

LEELEQFARTFKPRRIKLGFTQGDVGLAMGKLYGNDFSQTTISRFEALNLSFKNMCKLKPLLEKWLNDAE [Q13P]: the abundance fitness was -0.293 ± 0.027.

Regarding LEELEQFARVFKQRRIKLGFTQGDVGLAMGKLYGNDFSQTTISRFEALNLSFKNMCKLKPLLEKWLNDAE [T10V], the abundance fitness was -0.04 ± 0.018.

LEELEQFARYFKQRRIKLGFTQGDVGLAMGKLYGNDFSQTTISRFEALNLSFKNMCKLKPLLEKWLNDAE [T10Y]: the abundance fitness was -0.025 ± 0.024.

Consider LEELEQFARWFKQRRIKLGFTQGDVGLAMGKLYGNDFSQTTISRFEALNLSFKNMCKLKPLLEKWLNDAE [T10W], for which the abundance fitness is -0.142 ± 0.019.

As to LEELEQFARTFNQRRIKLGFTQGDVGLAMGKLYGNDFSQTTISRFEALNLSFKNMCKLKPLLEKWLNDAE [K12N], the abundance fitness was -0.583 ± 0.47.

With LEELEQFARTFSQRRIKLGFTQGDVGLAMGKLYGNDFSQTTISRFEALNLSFKNMCKLKPLLEKWLNDAE [K12S], the abundance fitness was -0.022 ± 0.22.

Turning to LEELEQFARTFEQRRIKLGFTQGDVGLAMGKLYGNDFSQTTISRFEALNLSFKNMCKLKPLLEKWLNDAE [K12E], the abundance fitness is -0.147 ± 0.22.

Consider LEELEQFARTFWQRRIKLGFTQGDVGLAMGKLYGNDFSQTTISRFEALNLSFKNMCKLKPLLEKWLNDAE [K12W], for which the abundance fitness is -0.337 ± 0.43.

Consider LEELEQFARTFLQRRIKLGFTQGDVGLAMGKLYGNDFSQTTISRFEALNLSFKNMCKLKPLLEKWLNDAE [K12L], for which the abundance fitness is -0.232 ± 0.19.

For the variant LEELEQFARTFRQRRIKLGFTQGDVGLAMGKLYGNDFSQTTISRFEALNLSFKNMCKLKPLLEKWLNDAE [K12R], the abundance fitness was -0.142 ± 0.18.

For LEELEQFARTFIQRRIKLGFTQGDVGLAMGKLYGNDFSQTTISRFEALNLSFKNMCKLKPLLEKWLNDAE [K12I], the abundance fitness worked out at 0.02 ± 0.29.

For LEELEQFARTFHQRRIKLGFTQGDVGLAMGKLYGNDFSQTTISRFEALNLSFKNMCKLKPLLEKWLNDAE [K12H], the abundance fitness was -0.127 ± 0.49.

Turning to LEELEQFARTFAQRRIKLGFTQGDVGLAMGKLYGNDFSQTTISRFEALNLSFKNMCKLKPLLEKWLNDAE [K12A], the abundance fitness is -0.254 ± 0.38.

Turning to LEELEQFARTFKQRNIKLGFTQGDVGLAMGKLYGNDFSQTTISRFEALNLSFKNMCKLKPLLEKWLNDAE [R15N], the abundance fitness is -0.799 ± 0.13.

Regarding LEELEQFARTFKQRAIKLGFTQGDVGLAMGKLYGNDFSQTTISRFEALNLSFKNMCKLKPLLEKWLNDAE [R15A], the abundance fitness was -0.977 ± 0.091.

As for LEELEQFARTFKQRPIKLGFTQGDVGLAMGKLYGNDFSQTTISRFEALNLSFKNMCKLKPLLEKWLNDAE [R15P], the abundance fitness was -1.16 ± 0.14.

For LEELEQFARTFKQREIKLGFTQGDVGLAMGKLYGNDFSQTTISRFEALNLSFKNMCKLKPLLEKWLNDAE [R15E], the abundance fitness is -0.897 ± 0.12.

Regarding LEELEQFARTFKQRHIKLGFTQGDVGLAMGKLYGNDFSQTTISRFEALNLSFKNMCKLKPLLEKWLNDAE [R15H], the abundance fitness is -1.13 ± 0.39.

LEELEQFARTFKQRGIKLGFTQGDVGLAMGKLYGNDFSQTTISRFEALNLSFKNMCKLKPLLEKWLNDAE [R15G]: the abundance fitness is -1.01 ± 0.092.

LEELEQFARTFKQRLIKLGFTQGDVGLAMGKLYGNDFSQTTISRFEALNLSFKNMCKLKPLLEKWLNDAE [R15L]: the abundance fitness is -0.806 ± 0.057.

With LEELEQFARTFKQRVIKLGFTQGDVGLAMGKLYGNDFSQTTISRFEALNLSFKNMCKLKPLLEKWLNDAE [R15V], the abundance fitness is -0.806 ± 0.062.

LEELEQFARTFKQRKIKLGFTQGDVGLAMGKLYGNDFSQTTISRFEALNLSFKNMCKLKPLLEKWLNDAE [R15K]: the abundance fitness is -1.08 ± 0.23.

LEELEQFARTFKQRFIKLGFTQGDVGLAMGKLYGNDFSQTTISRFEALNLSFKNMCKLKPLLEKWLNDAE [R15F]: the abundance fitness is -0.99 ± 0.18.

As to LEELEQFARTFKQRQIKLGFTQGDVGLAMGKLYGNDFSQTTISRFEALNLSFKNMCKLKPLLEKWLNDAE [R15Q], the abundance fitness was -1.04 ± 0.079.

For LEELEQFARTFKQRIIKLGFTQGDVGLAMGKLYGNDFSQTTISRFEALNLSFKNMCKLKPLLEKWLNDAE [R15I], the abundance fitness was -0.85 ± 0.19.

Turning to LEELEQFARTFKQRSIKLGFTQGDVGLAMGKLYGNDFSQTTISRFEALNLSFKNMCKLKPLLEKWLNDAE [R15S], the abundance fitness was -1 ± 0.12.

Turning to LEELEQFARTFKQRTIKLGFTQGDVGLAMGKLYGNDFSQTTISRFEALNLSFKNMCKLKPLLEKWLNDAE [R15T], the abundance fitness is -1.01 ± 0.11.

For LEELEQFARTFKQRCIKLGFTQGDVGLAMGKLYGNDFSQTTISRFEALNLSFKNMCKLKPLLEKWLNDAE [R15C], the abundance fitness is -0.698 ± 0.084.
